The source of these data is US20120090043A1, “TARGETS FOR RETROVIRUS ASSOCIATED DISEASES” (priority 2009, published 2012).

Experiment [1] concerns HTLV-1 LTR promoter transactivation by HTLV-1 Tax. Put plainly: Transactivation assay, HTLV-1 LTR luciferase reporter with HTLV-1 Tax. The conditions noted are these: HEK293 cells co-transfected with pHTLV1LTR-Luc, HTLV-1 Tax and the human ORF; relative luciferase activity 24 h post-transfection; positive if >=2 or <=0.5 and p<0.05. In kind it is cell-based.
In experiment [2] the test system is HIV-1 LTR promoter transactivation by HIV-1 Tat. Put plainly: Transactivation assay, HIV-1 LTR luciferase reporter with HIV-1 Tat. In kind it is cell-based. To be noted: HEK293 cells co-transfected with pHIV1LTR-Luc, HIV-1 Tat and the human ORF; relative luciferase activity 24 h post-transfection; positive if >=2 or <=0.5 and p<0.05. The method in brief:
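HEK293 cells (10^4) were calcium-phosphate co-transfected with the HIV-1 LTR-luciferase reporter plus HIV-1 Tat, or the HTLV-1 LTR-luciferase reporter plus HTLV-1 Tax, each with a human ORF expression plasmid. A hit required relative activity ≥2 or ≤0.5 with paired t-test p<0.05.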
For orientation: In a reporter assay the amount or activity of a reporter protein is the signal.

B1: FANCG: human host interactor protein, Gene ID 2189, expressed from transfected ORF vector (protein)
chain: MSRQTTSVGSSCLDLWREKNDRLVRQAKVAQNSGLTLRRQQLAQDALEGLRGLLHSLQGLPAAVPVLPLELTVTCNFIILRASLAQGFTEDQAQDIQRSLERVLETQEQQGPRLEQGLRELWDSVLRASCLLPELLSALHRLVGLQAALWLSADRLGDLALLLETLNGSQSGASKDLLLLLKTWSPPAEELDAPLTLQDAQGLKDVLLTAFAYRQGLQELITGNPDKALSSLHEAASGLCPRPVLVQVYTALGSCHRKMGNPQRALLYLVAALKEGSAWGPPLLEASRLYQQLGDTTAELESLELLVEALNVPCSSKAPQFLIEVELLLPPPDLASPLHCGTQSQTKHILASRCLQTGRAGDAAEHYLDLLALLLDSSEPRFSPPPSPPGPCMPEVFLEAAVALIQAGRAQDALTLCEELLSRTSSLLPKMSRLWEDARKGTKELPYCPLWVSATHLLQGQAWVQLGAQKVAISEFSRCLELLFRATPEEKEQGAAFNCEQGCKSDAALQQLRAAALISRGLEWVASGQDTKALQDFLLSVQMCPGNRDTYFHLLQTLKRLDRRDEATALWWRLEAQTKGSHEDALWSLPLYLESYLSWIRPSDRDAFLEEFRTSLPKSCDL
In turn, B1 returned an HTLV_LTR transactiv. in experiment [1] of 3.48 fold change. Also, the HIV_LTR transactiv. in experiment [2] is given as 0.27 fold change.

B2: DLX2: human host interactor protein, Gene ID 1746, expressed from transfected ORF vector (protein)
chain: MTGVFDSLVADMHSTQIAASSTYHQHQQPPSGGGAGPGGNSSSSSSLHKPQESPTLPVSTATDSSYYTNQQHPAGGGGGGGSPYAHMGSYQYQASGLNNVPYSAKSSYDLGYTAAYTSYAPYGTSSSPANNEPEKEDLEPEIRIVNGKPKKVRKPRTIYSSFQLAALQRRFQKTQYLALPERAELAASLGLTQTQVKIWFQNRRSKFKKMWKSGEIPSEQHPGASASPPCASPPVSAPASWDFGVPQRMAGGGGPGSGGSGAGSSGSSPSSAASAFLGNYPWYHQTSGSASHLQATAPLLHPTQTPQPHHHHHHHGGGGAPVSAGTIF
As to B2, the HTLV_LTR transactiv. in experiment [1] is given as 0.30 fold change. In experiment [2], this molecule came in with an HIV_LTR transactiv. of 0.24 fold change.

B3: LZTS2: human host interactor protein, Gene ID 84445, expressed from transfected ORF vector (protein)
chain: MAIVQTLPVPLEPAPEAATAPQAPVMGSVSSLISGRPCPGGPAPPRHHGPPGPTFFRQQDGLLRGGYEAQEPLCPAVPPRKAVPVTSFTYINEDFRTESPPSPSSDVEDAREQRAHNAHLRGPPPKLIPVSGKLEKNMEKILIRPTAFKPVLPKPRGAPSLPSFMGPRATGLSGSQGSLTQLFGGPASSSSSSSSSSAADKPLAFSGWASGCPSGTLSDSGRNSLSSLPTYSTGGAEPTTSSPGGHLPSHGSGRGALPGPARGVPTGPSHSDSGRSSSSKSTGSLGGRVAGGLLGSGTRASPDSSSCGERSPPPPPPPPSDEALLHCVLEGKLRDREAELQQLRDSLDENEATMCQAYEERQRHWQREREALREDCAAQAQRAQRAQQLLQLQVFQLQQEKRQLQDDFAQLLQEREQLERRCATLEREQRELGPRLEETKWEVCQKSGEISLLKQQLKESQAELVQKGSELVALRVALREARATLRVSEGRARGLQEAARARELELEACSQELQRHRQEAEQLREKAGQLDAEAAGLREPPVPPATADPFLLAESDEAKVQRAAAGVGGSLRAQVERLRVELQRERRRGEEQRDSFEGERLAWQAEKEQVIRYQKQLQHNYIQMYRRNRQLEQELQQLSLELEARELADLGLAEQAPCICLEEITATEI
In turn, B3 had an HTLV_LTR transactiv. in experiment [1] of 0.23 fold change. For the same molecule, the HIV_LTR transactiv. in experiment [2] is listed as 0.49 fold change.

B4: LNX2: human host interactor protein, Gene ID 222484, expressed from transfected ORF vector (protein)
chain: MGTTSDEMVSVEQTSSSSLNPLCFECGQQHWTRENHLYNYQNEVDDDLVCHICLQPLLQPLDTPCGHTFCYKCLRNFLQEKDFCPLDRKRLHFKLCKKSSILVHKLLDKLLVLCPFSSVCKDVMQRCDLEAHLKNRCPGASHRRVALERRKTSRTQAEIENENGPTLLDPAGTLSPEADCLGTGAVPVERHLTSASLSTWSEEPGLDNPAFEESAGADTTQQPLSLPEGEITTIEIHRSNPYIQLGISIVGGNETPLINIVIQEVYRDGVIARDGRLLAGDQILQVNNYNISNVSHNYARAVLSQPCNTLHLTVLRERRFGNRAHNHSDSNSPREEIFQVALHKRDSGEQLGIKLVRRTDEPGVFILDLLEGGLAAQDGRLSSNDRVLAINGHDLKYGTPELAAQIIQASGERVNLTIARPGKPQPGNTIREAGNHSSSSQHHTPPPYYSRPSSHKDLTQCVTCQEKHITVKKEPHESLGMTVAGGRGSKSGELPIFVTSVPPHGCLARDGRIKRGDVLLNINGIDLTNLSHSEAVAMLKASAASPAVALKALEVQIVEEATQNAEEQPSTFSENEYDASWSPSWVMWLGLPSTLHSCHDIVLRRSYLGSWGFSIVGGYEENHTNQPFFIKTIVLGTPAYYDGRLKCGDMIVAVNGLSTVGMSHSALVPMLKEQRNKVTLTVICWPGSLV
Turning to B4, the HTLV_LTR transactiv. in experiment [1] amounted to 0.28 fold change. Besides, the HIV_LTR transactiv. in experiment [2] is 0.26 fold change.

B5: GCC1: human host interactor protein, Gene ID 79571, expressed from transfected ORF vector (protein)
chain: MEKFGMNFGGGPSKKDLLETIETQKKQLLQYQARLKDVVRAYKSLLKEKEALEASIKVLSVSHEADVGLAGVQLPGLTFPDSVDDRCSTHSEDSTGTATSLDTAASLTSTKGEFGVEDDRPARGPPPPKSEEASWSESGVSSSSGDGPFAGGEVDKRLHQLKTQLATLTSSLATVTQEKSRMEASYLADKKKMKQDLEDASNKAEEERARLEGELKGLQEQIAETKARLITQQHDRAQEQSDHALMLRELQKLLQEERTQRQDLELRLEETREALAGRAYAAEQMEGFELQTKQLTREVEELKSELQAIRDEKNQPDPRLQELQEEAARLKSHFQAQLQQEMRKTALAEDQLRQQSQVEEQRVAALENQISEVSELLGTYEKAKQKDQLAIQKLKERILQLDLENKTLALAASSRSPLDSHGEESSLDVNVLKDKMEKLKRLLQVAARKSQVTLDVEKLCDLEIMPSSEAADGEKATALYYQQELKQLKEEFERYKMRAQVVLKSKNTKDGNLGKELEAAQEQLAELKEKYISLRLSCEELEHQHQQEADDWKQELARLQQLHRQELERCQLDFRDRTLKLEEELHKQRDRALAVLTEKDLELEQLRSVALASGLPGRRSPVGGGGPGDPADTSSSDSLTQALQLAAANEPTFFLYAEQLARKEVEITSLRKQKHRLEVEVHQLQDRLLEEGERHREEVAALQSHIEKNIRDQSREGANLEYLKNIIYRFLTLPDSLGRQQTLTAILTILHFSPEEKQVIMRLPTSASWWPSGKR
In experiment [1], B5 had an HTLV_LTR transactiv. of 0.29 fold change. The same molecule had an HIV_LTR transactiv. in experiment [2] of 3.78 fold change.

B6: KRT8: human host interactor protein, Gene ID 3856, expressed from transfected ORF vector (protein)
chain: MSIRVTQKSYKVSTSGPRAFSSRSYTSGPGSRISSSSFSRVGSSNFRGGLGGGYGGASGMGGITAVTVNQSLLSPLVLEVDPNIQAVRTQEKEQIKTLNNKFASFIDKVRFLEQQNKMLETKWSLLQQQKTARSNMDNMFESYINNLRRQLETLGQEKLKLEAELGNMQGLVEDFKNKYEDEINKRTEMENEFVLIKKDVDEAYMNKVELESRLEGLTDEINFLRQLYEEEIRELQSQISDTSVVLSMDNSRSLDMDSIIAEVKAQYEDIANRSRAEAESMYQIKYEELQSLAGKHGDDLRRTKTEISEMNRNISRLQAEIEGLKGQRASLEAAIADAEQRGELAIKDANAKLSELEAALQRAKQDMARQLREYQELMNVKLALDIEIATYRKLLEGEESRLESGMQNMSIHTKTTSGYAGGLSSAYGGLTSPGLSYSLGSSFGSGAGSSSFSRTSSSRAVVVKKIETRDGKLVSESSDVLPK
As for B6, in experiment [1], the HTLV_LTR transactiv. was 0.24 fold change. For the same molecule, in experiment [2], the HIV_LTR transactiv. is reported as 0.19 fold change.
